The text below walks through data of PMC10330758 (DNA repair, 2023).

The assay has as its target N-terminally his-tagged human DHX9 (human, UniProt Q08211 1-1270). The assay can be described thus: pull-down.

Chain of N-terminally his-tagged human DHX9 (Q08211 whole entry): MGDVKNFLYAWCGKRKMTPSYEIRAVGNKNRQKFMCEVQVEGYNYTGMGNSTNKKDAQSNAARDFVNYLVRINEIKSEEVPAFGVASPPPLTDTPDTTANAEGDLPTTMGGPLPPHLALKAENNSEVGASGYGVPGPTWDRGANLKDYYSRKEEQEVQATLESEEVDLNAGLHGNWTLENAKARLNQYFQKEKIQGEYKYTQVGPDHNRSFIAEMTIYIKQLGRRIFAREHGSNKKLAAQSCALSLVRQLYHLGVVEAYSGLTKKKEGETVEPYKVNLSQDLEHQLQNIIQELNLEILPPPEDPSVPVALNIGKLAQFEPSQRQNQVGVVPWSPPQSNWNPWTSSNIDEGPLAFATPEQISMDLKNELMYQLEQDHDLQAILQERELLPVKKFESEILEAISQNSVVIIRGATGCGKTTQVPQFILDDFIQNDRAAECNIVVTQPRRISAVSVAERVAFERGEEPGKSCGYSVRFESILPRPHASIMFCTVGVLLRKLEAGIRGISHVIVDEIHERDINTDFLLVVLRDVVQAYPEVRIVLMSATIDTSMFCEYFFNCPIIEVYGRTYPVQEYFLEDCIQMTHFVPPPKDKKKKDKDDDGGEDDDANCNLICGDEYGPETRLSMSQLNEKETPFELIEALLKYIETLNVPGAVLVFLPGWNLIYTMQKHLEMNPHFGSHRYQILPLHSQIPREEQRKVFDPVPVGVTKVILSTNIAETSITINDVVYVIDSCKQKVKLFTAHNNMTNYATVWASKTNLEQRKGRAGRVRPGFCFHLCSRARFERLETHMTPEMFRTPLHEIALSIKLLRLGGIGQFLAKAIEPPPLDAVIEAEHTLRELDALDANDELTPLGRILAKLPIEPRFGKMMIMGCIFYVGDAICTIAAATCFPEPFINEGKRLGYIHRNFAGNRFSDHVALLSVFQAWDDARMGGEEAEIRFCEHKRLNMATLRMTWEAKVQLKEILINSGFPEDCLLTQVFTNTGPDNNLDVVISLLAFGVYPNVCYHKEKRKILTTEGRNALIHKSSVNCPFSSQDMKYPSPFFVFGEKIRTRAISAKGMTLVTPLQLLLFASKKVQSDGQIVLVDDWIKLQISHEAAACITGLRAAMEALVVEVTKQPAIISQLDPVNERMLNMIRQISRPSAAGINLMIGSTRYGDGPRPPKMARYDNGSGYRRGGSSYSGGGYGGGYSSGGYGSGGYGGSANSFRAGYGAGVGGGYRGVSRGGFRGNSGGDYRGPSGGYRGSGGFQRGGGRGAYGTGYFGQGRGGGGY

B1: Un-tagged p125 subunit of Pol δ (enzyme, human, UniProt P28340 1-1107, looked up)
chain: MDGKRRPGPGPGVPPKRARGGLWDDDDAPRPSQFEEDLALMEEMEAEHRLQEQEEEELQSVLEGVADGQVPPSAIDPRWLRPTPPALDPQTEPLIFQQLEIDHYVGPAQPVPGGPPPSRGSVPVLRAFGVTDEGFSVCCHIHGFAPYFYTPAPPGFGPEHMGDLQRELNLAISRDSRGGRELTGPAVLAVELCSRESMFGYHGHGPSPFLRITVALPRLVAPARRLLEQGIRVAGLGTPSFAPYEANVDFEIRFMVDTDIVGCNWLELPAGKYALRLKEKATQCQLEADVLWSDVVSHPPEGPWQRIAPLRVLSFDIECAGRKGIFPEPERDPVIQICSLGLRWGEPEPFLRLALTLRPCAPILGAKVQSYEKEEDLLQAWSTFIRIMDPDVITGYNIQNFDLPYLISRAQTLKVQTFPFLGRVAGLCSNIRDSSFQSKQTGRRDTKVVSMVGRVQMDMLQVLLREYKLRSYTLNAVSFHFLGEQKEDVQHSIITDLQNGNDQTRRRLAVYCLKDAYLPLRLLERLMVLVNAVEMARVTGVPLSYLLSRGQQVKVVSQLLRQAMHEGLLMPVVKSEGGEDYTGATVIEPLKGYYDVPIATLDFSSLYPSIMMAHNLCYTTLLRPGTAQKLGLTEDQFIRTPTGDEFVKTSVRKGLLPQILENLLSARKRAKAELAKETDPLRRQVLDGRQLALKVSANSVYGFTGAQVGKLPCLEISQSVTGFGRQMIEKTKQLVESKYTVENGYSTSAKVVYGDTDSVMCRFGVSSVAEAMALGREAADWVSGHFPSPIRLEFEKVYFPYLLISKKRYAGLLFSSRPDAHDRMDCKGLEAVRRDNCPLVANLVTASLRRLLIDRDPEGAVAHAQDVISDLLCNRIDISQLVITKELTRAASDYAGKQAHVELAERMRKRDPGSAPSLGDRVPYVIISAAKGVAAYMKSEDPLFVLEHSLPIDTQYYLEQQLAKPLLRIFEPILGEGRAEAVLLRGDHTRCKTVLTGKVGGLLAFAKRRNCCIGCRTVLSHQGAVCEFCQPRESELYQKEVSHLNALEERFSRLWTQCQRCQGSLHEDVICTSRDCPIFYMRKKVRKDLEDQEQLLRRFGPPGPEAW
For the molecule B1, the binding result was “binds”.
